Consider three molecules from US20200010536A1.

B1: SA-13 (antibody, V domains shown)
VH: QVQLVESGGGLVRPGGSLRLSCAASGFTFSEYYMSWIRQAPGKGLEWLSYISSSGTTIGHADSLKGRFTISRDNARNSLFLQMNSLRAEDTAVYYCARDGVGGPRARYDAFDIWGQGTLVTVSS
VL: QSVLTQPPSVSGAPGQRVTISCTGTYSNIGAGYDVHWYQQLPGRAPKLLIYGNRNRPSGVPDRFSGSKSGTSASLAITGLQAEDEADYYCQSHDSSLSGSVFGGGTKVTVL
B2: SA-15 (antibody, V domains shown)
VH: QVQLVQSGGGVVQPGRSLRLSCAASGFSFSTYDMNWVRQAPGKGLEWLSIISYDETNKYYADSVKGRFTISRDNSKNTLFLQMNSLKPEDSAVYHCVKVGWTLVGDGVDMWGQGTLVTVSS
VL: QPVLTQSPSSLSASVGDRVTISCRASQGISHYLAWYQQQPGKVPKLLIYAASTLQSGVPSRFSGSGSGTDFTLTISSLQPEDVATYYCQKYNGAPFTFGPGTKVDIK
B3: SA-17 (antibody, V domains shown)
VH: QVQLVQSGGAVVQPGGSLRLSCVASGFTFDDYAMHWVRQAPGKGLEWVSLITLDGGRTYYADSVKGRFTISRDNSKNSLYLQMNRLRADDTGFYYCARDIKIGEAVMITVPGQHWGQGTLVTVSS
VL: QSVVTQDPGVSVALGQTVFITCQGDTLRSNYANWFQQKPGQAPVLVMYGKNNRPSGIPDRFSGSSSGNTASLTITGAQAEDEADYYCNSRDSSGNHVVFGGGTRVTVL

For the assay, the target named is LukAB heterodimer (Staphylococcus aureus). Put plainly: ELISA, immobilized LukAB, anti-human IgG-peroxidase detection. On the technique in general: ELISA stands for enzyme-linked immunosorbent assay.
Broadly, the EC50 is the concentration needed to bring the measured effect to its halfway point. A higher EC50 goes with weaker potency. For the molecule B1, the EC50 was 0.8 µg/mL.

In turn, B2 gave a concentration giving a half-maximal response (EC50) of 1.5 µg/mL.

Turning to B3, the concentration for a half-maximal effect (EC50) was found to be 0.3 µg/mL.
